Assay results published in publication PMC3688787.
Square brackets hold non-standard residues; d marks the D form. Ends that are not written are not given here. Hyp = O=C(O)[C@@H]1C[C@@H](O)CN1

Assays:
Test in all cases: ELISA; ELISA-based binding assay: pVHL variant (10 µg/ml, 100 µl) coated on the plate overnight at 4°C, blocked with 5% BSA; TAMRA-labelled Hyp402-ODD peptide added at increasing concentrations, 1 h at 25°C; high salt buffer (10 mM Tris-HCl pH 8.5, 500 mM NaCl) without Arginine; fluorescence at 580 nm
[1] = molecular target: pVHL F119L mutant, 19 kDa form (human)
[2] = molecular target: pVHL F136L mutant, 19 kDa form (human)
[3] = molecular target: pVHL N78S mutant, 19 kDa form (human)

fold lower affinity than the WT [1]: 2.5 fold
fold lower affinity than the WT [2]: 5 fold
fold lower affinity than the WT [3]: 2 fold
Binder: LDLEALA[Hyp]YIPADDDFQLRS (also: TAMRA (rhodamine) label, end not given here) [Hyp402-ODD target peptide of HIF-1α]
